From patent publication US20040253623, “Nucleic acid binding proteins” (Gendaq Limited, published 2004) come the findings set out here.

For data set [1], the target named is anti-ras lead zinc finger peptide (3 fingers) (Artificial Sequence). The data set is described as follows: apparent Kd; phage binding. Conditions: protein: virion; label: biotin.
Data set [2] has as its target optimised anti-ras zinc finger peptide (Asn at helix +3 of finger 1) (Artificial Sequence, S21N (finger 1 helix position +3 Ser to Asn; numbering of SEQ 14)). In words: apparent Kd; phage binding. Conditions: protein: virion; label: biotin.

Chain of optimised anti-ras zinc finger peptide (Asn at helix +3 of finger 1) (Artificial Sequence, S21N (finger 1 helix position +3 Ser to Asn; numbering of SEQ 14)) (chain, as listed by the source with the stated changes): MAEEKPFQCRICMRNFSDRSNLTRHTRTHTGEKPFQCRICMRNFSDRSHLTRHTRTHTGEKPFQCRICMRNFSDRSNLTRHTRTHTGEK
Chain of anti-ras lead zinc finger peptide (3 fingers) (Artificial Sequence) (chain, as listed by the source): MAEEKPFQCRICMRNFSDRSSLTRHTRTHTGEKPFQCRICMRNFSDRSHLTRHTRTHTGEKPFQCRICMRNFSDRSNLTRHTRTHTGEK

B1: EJ mutant (G12V) H-ras DNA, codons 8-16 (dsDNA)
DNA 1: GTGGTGGGCGCCGTCGGTGTGGGCAAG
DNA 2: CTTGCCCACACCGACGGCGCCCACCAC
B1: the figures for the Kd in data set [1] and in data set [2] were 17 nM and 3 nM, respectively.
